In publication doi:10.1101/2024.01.08.574586:

Biological target: recombinant biotinylated HIP1 protein (UniProt O00291)
Experiment: SPR

Sequence of UniProt O00291 (O00291 whole entry): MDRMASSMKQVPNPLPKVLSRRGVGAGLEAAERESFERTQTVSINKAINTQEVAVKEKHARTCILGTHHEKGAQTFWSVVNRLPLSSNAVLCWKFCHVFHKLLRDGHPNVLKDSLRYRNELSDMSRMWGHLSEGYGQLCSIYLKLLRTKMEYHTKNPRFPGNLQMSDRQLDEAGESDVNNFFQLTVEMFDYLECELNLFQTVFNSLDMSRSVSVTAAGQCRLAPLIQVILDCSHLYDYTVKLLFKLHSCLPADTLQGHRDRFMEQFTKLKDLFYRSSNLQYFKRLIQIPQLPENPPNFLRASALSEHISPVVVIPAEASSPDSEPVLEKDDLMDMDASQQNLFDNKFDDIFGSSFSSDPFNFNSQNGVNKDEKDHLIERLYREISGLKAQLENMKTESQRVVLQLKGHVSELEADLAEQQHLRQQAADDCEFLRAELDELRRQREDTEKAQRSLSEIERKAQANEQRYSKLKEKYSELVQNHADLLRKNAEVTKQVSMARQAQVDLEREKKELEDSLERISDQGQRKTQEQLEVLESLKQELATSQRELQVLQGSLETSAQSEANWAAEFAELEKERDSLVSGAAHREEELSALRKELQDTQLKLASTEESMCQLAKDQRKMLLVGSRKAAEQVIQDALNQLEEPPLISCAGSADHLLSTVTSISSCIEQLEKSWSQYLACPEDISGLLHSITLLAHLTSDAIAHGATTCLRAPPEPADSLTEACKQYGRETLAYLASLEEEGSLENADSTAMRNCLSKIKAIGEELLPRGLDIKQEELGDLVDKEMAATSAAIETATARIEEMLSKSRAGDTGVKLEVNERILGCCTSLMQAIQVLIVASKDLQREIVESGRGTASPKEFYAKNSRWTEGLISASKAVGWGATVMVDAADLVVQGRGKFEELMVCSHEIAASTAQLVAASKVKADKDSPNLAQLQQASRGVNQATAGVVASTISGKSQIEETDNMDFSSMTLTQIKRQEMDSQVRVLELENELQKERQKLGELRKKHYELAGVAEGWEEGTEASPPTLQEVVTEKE

Kd [µM] | Substance
197 | mono Ub (SPR analyte) (from UniProt P0CG48 1-76) (natural protein)
1.89 | K63-linked Ub2 (SPR analyte) (from UniProt P0CG48)
137 | K48-linked Ub2 (SPR analyte) (from UniProt P0CG48)
1.55 | K63-linked Ub3 (SPR analyte) (from UniProt P0CG48)
0.07 | K48/K63-linked branched Ub3 (SPR analyte) (from UniProt P0CG48)
66.2 | K48-linked Ub3 (SPR analyte) (from UniProt P0CG48)
